Publication PMC8191314 (The Journal of Biological Chemistry, 2021)

Biological target: the molecule itself
Test: cross-linking

B1: MRCKβ in extracts from HeLa cells (enzyme, UniProt Q9Y5S2 1-1711, looked up)
chain: MSAKVRLKKLEQLLLDGPWRNESALSVETLLDVLVCLYTECSHSALRRDKYVAEFLEWAKPFTQLVKEMQLHREDFEIIKVIGRGAFGEVAVVKMKNTERIYAMKILNKWEMLKRAETACFREERDVLVNGDCQWITALHYAFQDENHLYLVMDYYVGGDLLTLLSKFEDKLPEDMARFYIGEMVLAIDSIHQLHYVHRDIKPDNVLLDVNGHIRLADFGSCLKMNDDGTVQSSVAVGTPDYISPEILQAMEDGMGKYGPECDWWSLGVCMYEMLYGETPFYAESLVETYGKIMNHEERFQFPSHVTDVSEEAKDLIQRLICSRERRLGQNGIEDFKKHAFFEGLNWENIRNLEAPYIPDVSSPSDTSNFDVDDDVLRNTEILPPGSHTGFSGLHLPFIGFTFTTESCFSDRGSLKSIMQSNTLTKDEDVQRDLEHSLQMEAYERRIRRLEQEKLELSRKLQESTQTVQSLHGSSRALSNSNRDKEIKKLNEEIERLKNKIADSNRLERQLEDTVALRQEREDSTQRLRGLEKQHRVVRQEKEELHKQLVEASERLKSQAKELKDAHQQRKLALQEFSELNERMAELRAQKQKVSRQLRDKEEEMEVATQKVDAMRQEMRRAEKLRKELEAQLDDAVAEASKERKLREHSENFCKQMESELEALKVKQGGRGAGATLEHQQEISKIKSELEKKVLFYEEELVRREASHVLEVKNVKKEVHDSESHQLALQKEILMLKDKLEKSKRERHNEMEEAVGTIKDKYERERAMLFDENKKLTAENEKLCSFVDKLTAQNRQLEDELQDLAAKKESVAHWEAQIAEIIQWVSDEKDARGYLQALASKMTEELEALRSSSLGSRTLDPLWKVRRSQKLDMSARLELQSALEAEIRAKQLVQEELRKVKDANLTLESKLKDSEAKNRELLEEMEILKKKMEEKFRADTGLKLPDFQDSIFEYFNTAPLAHDLTFRTSSASEQETQAPKPEASPSMSVAASEQQEDMARPPQRPSAVPLPTTQALALAGPKPKAHQFSIKSFSSPTQCSHCTSLMVGLIRQGYACEVCSFACHVSCKDGAPQVCPIPPEQSKRPLGVDVQRGIGTAYKGHVKVPKPTGVKKGWQRAYAVVCDCKLFLYDLPEGKSTQPGVIASQVLDLRDDEFSVSSVLASDVIHATRRDIPCIFRVTASLLGAPSKTSSLLILTENENEKRKWVGILEGLQSILHKNRLRNQVVHVPLEAYDSSLPLIKAILTAAIVDADRIAVGLEEGLYVIEVTRDVIVRAADCKKVHQIELAPREKIVILLCGRNHHVHLYPWSSLDGAEGSFDIKLPETKGCQLMATATLKRNSGTCLFVAVKRLILCYEIQRTKPFHRKFNEIVAPGSVQCLAVLRDRLCVGYPSGFCLLSIQGDGQPLNLVNPNDPSLAFLSQQSFDALCAVELESEEYLLCFSHMGLYVDPQGRRARAQELMWPAAPVACSCSPTHVTVYSEYGVDVFDVRTMEWVQTIGLRRIRPLNSEGTLNLLNCEPPRLIYFKSKFSGAVLNVPDTSDNSKKQMLRTRSKRRFVFKVPEEERLQQRREMLRDPELRSKMISNPTNFNHVAHMGPGDGMQVLMDLPLSAVPPSQEERPGPAPTNLARQPPSRNKPYISWPSSGGSEPSVTVPLRSMSDPDQDFDKEPDSDSTKHSTPSNSSNPSGPPSPNSPHRSQLPLEGLEQPACDT
stoichiometry N: 2
